Experimental findings from US20180371090A1 are described below.

Experiment [1] concerns the target human CD3 on Jurkat cells (human) (UniProt P07766). Kind of experiment: flow cytometry on Jurkat cells, FITC anti-human IgG secondary. Background: A flow cytometer gives signals particle by particle.
Experiment [2] deals with FcγRI and FcγRIIA on U937 cells. The experiment is described as follows: flow cytometry on U937 cells (FcγRI and FcγRIIA), FITC goat anti-human Fab secondary, MFI.
Experiment [3] has as its target His-tagged cynomolgus FcγRIIA (cynomolgus). Kind of experiment: SPR steady-state, His-captured receptor, 25 C.
Experiment [4] has as its target His-tagged cynomolgus FcγRIIB (cynomolgus). Kind of experiment: SPR steady-state, His-captured receptor, 25 C.
Experiment [5] deals with His-tagged cynomolgus FcγRIIIA (cynomolgus) (UniProt Q8SPW2). Kind of experiment: SPR steady-state, His-captured receptor, 25 C.
Chain of His-tagged cynomolgus FcγRIIIA (cynomolgus) (Q8SPW2 17-208 limits assumed): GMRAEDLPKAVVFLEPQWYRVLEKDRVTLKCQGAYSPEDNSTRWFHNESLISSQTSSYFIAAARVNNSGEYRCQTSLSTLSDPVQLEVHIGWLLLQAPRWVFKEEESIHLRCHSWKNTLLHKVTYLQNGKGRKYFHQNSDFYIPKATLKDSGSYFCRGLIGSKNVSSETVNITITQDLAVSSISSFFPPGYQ
The target in experiment [6] is His-tagged human FcγRIIA (H131) (human) (UniProt P12318). Kind of experiment: SPR steady-state, His-captured receptor, 25 C.
Chain of His-tagged human FcγRIIA (H131) (human) (P12318 36-218 limits assumed): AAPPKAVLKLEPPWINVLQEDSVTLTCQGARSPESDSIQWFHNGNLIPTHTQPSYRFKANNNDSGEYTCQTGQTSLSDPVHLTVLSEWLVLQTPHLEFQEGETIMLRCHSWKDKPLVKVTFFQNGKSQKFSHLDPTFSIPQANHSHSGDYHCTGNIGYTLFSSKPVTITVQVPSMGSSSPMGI
The target of experiment [7] is His-tagged human FcγRIIA (R131) (human) (UniProt P12318). The experiment is described as follows: SPR steady-state, His-captured receptor, 25 C.
Chain of His-tagged human FcγRIIA (R131) (human) (P12318 36-218 H167R limits assumed): as the sequence (P12318 36-218 limits assumed) above, with H132R counted along it
Experiment [8] deals with His-tagged human FcγRIIB (human) (UniProt P31994). Kind of experiment: SPR steady-state, His-captured receptor, 25 C.
Chain of His-tagged human FcγRIIB (human) (P31994 46-217 limits assumed): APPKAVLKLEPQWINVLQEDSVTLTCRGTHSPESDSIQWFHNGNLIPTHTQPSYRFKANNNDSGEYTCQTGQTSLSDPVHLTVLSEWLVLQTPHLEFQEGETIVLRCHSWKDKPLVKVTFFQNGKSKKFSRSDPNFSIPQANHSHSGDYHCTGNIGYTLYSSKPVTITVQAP

B1: Antibody 1, sIgG4-anti-CD3_L2K (antibody, part only; not given: L2K light chain, part only)
heavy: DVQLVQSGAEVKKPGASVKVSCKASGYTFTRYTMHWVRQAPGQGLEWIGYINPSRGYTNYADSVKGRFTITTDKSTSTAYMELSSLRSEDTATYYCARYYDDHYCLDYWGQGTTVTVSSASTKGPSVFPLAPCSRSTSESTAALGCLVKDYFPEPVTVSWNSGALTSGVHTFPAVLQSSGLYSLSSVVTVPSSSLGTKTYTCNVDHKPSNTKVDKRVESKYGPPCPPCPAPPVAGPSVFLFPPKPKDTLMISRTPEVTCVVVDVSQEDPEVQFNWYVDGVEVHNAKTKPREEQFNSTYRVVSVLTVLHQDWLNGKEYKCKVSNKGLPSSIEKTISKAKGQPREPQVYTLPPSQEEMTKNQVSLTCLVKGFYPSDIAVEWESNGQPENNYKTTPPVLDSDGSFFLYSRLTVDKSRWQEGNVFSCSVMHEALHNHYTQKSLSLSLGK
With B1, the Geom. Mean:FITC-A in experiment [1] was 1390. Moreover, the EC50 (commonly the concentration at which the effect is half-maximal) in experiment [2] is 0.0335 µM.

B2: Antibody 4, anti-CD3 x anti-CD20 bispecific antibody with chimeric IgG4 constant regions (bispecific antibody, part only; not given: variable domains of both arms, not shown: another chain or arm of the molecule)
constant 1: ASTKGPSVFPLAPCSRSTSESTAALGCLVKDYFPEPVTVSWNSGALTSGVHTFPAVLQSSGLYSLSSVVTVPSSSLGTKTYTCNVDHKPSNTKVDKRVESKYGPPCPPCPAPPVAGPSVFLFPPKPKDTLMISRTPEVTCVVVDVSQEDPEVQFNWYVDGVEVHNAKTKPREEQFNSTYRVVSVLTVLHQDWLNGKEYKCKVSNKGLPSSIEKTISKAKGQPREPQVYTLPPSQEEMTKNQVSLTCLVKGFYPSDIAVEWESNGQPENNYKTTPPVLDSDGSFFLYSRLTVDKSRWQEGNVFSCSVMHEALHNHYTQKSLSLSLGK
constant 2: ASTKGPSVFPLAPCSRSTSESTAALGCLVKDYFPEPVTVSWNSGALTSGVHTFPAVLQSSGLYSLSSVVTVPSSSLGTKTYTCNVDHKPSNTKVDKRVESKYGPPCPPCPAPPVAGPSVFLFPPKPKDTLMISRTPEVTCVVVDVSQEDPEVQFNWYVDGVEVHNAKTKPREEQFNSTYRVVSVLTVLHQDWLNGKEYKCKVSNKGLPSSIEKTISKAKGQPREPQVYTLPPSQEEMTKNQVSLTCLVKGFYPSDIAVEWESNGQPENNYKTTPPVLDSDGSFFLYSRLTVDKSRWQEGNVFSCSVMHEALHNRFTQKSLSLSLGK
As to B2, the Kd (as a rule, the concentration at which binding is half-saturated) in experiment [3] was determined as 23.1 µM; in experiment [4] it was 13.9 µM; in experiment [5], 66.3 µM; in experiment [6] it was 12 µM; in experiment [7] it was 19.3 µM; in experiment [8], 123 µM.
